Source: the Immune Epitope Database (IEDB)
pKd: −log10 of the molar value.

Legend:
[1] = molecular target: HLA-B*54:01; experiment: IEDB peptide-MHC binding, purified MHC/competitive/radioactivity; filed as Kd, often an IC50 or EC50 that approximates it; ≥ and ≤ were set here for values at or beyond the usual limits of such assays
[2] = molecular target: HLA-A*68:02; experiment: as above
[3] = molecular target: HLA-A*03:01; experiment: as above
[4] = molecular target: HLA-A*02:03; experiment: as above
[5] = molecular target: HLA-B*07:02; experiment: as above
[6] = molecular target: HLA-A*02:06; experiment: as above
[7] = molecular target: HLA-A*68:01; experiment: as above
[8] = molecular target: HLA-B*35:01; experiment: as above
[9] = molecular target: HLA-A*33:01; experiment: as above
[10] = molecular target: HLA-B*51:01; experiment: as above
[11] = molecular target: HLA-A*31:01; experiment: as above
[12] = molecular target: HLA-A*11:01; experiment: as above
[13] = molecular target: HLA-B*53:01; experiment: as above
[14] = molecular target: HLA-A*02:02; experiment: as above
[15] = molecular target: HLA-B*40:01; experiment: as above; details: source organism: Hepacivirus hominis
[16] = molecular target: HLA-B*44:03; experiment: as above; details: source organism: Hepacivirus hominis
[17] = molecular target: HLA-A*02:01; experiment: as above; details: source organism: Hepacivirus hominis
[18] = molecular target: HLA-B*08:01; experiment: as above; details: source organism: Hepacivirus hominis
[19] = molecular target: HLA-A*01:01; experiment: as above; details: source organism: Hepacivirus hominis
[20] = molecular target: HLA-B*40:02; experiment: as above; details: source organism: Hepacivirus hominis
[21] = molecular target: HLA-B*18:01; experiment: as above; details: source organism: Hepacivirus hominis
[22] = molecular target: HLA-B*44:02; experiment: as above; details: source organism: Hepacivirus hominis
[23] = molecular target: HLA-B*40:01; experiment: IEDB peptide-MHC binding, purified MHC/direct/fluorescence; filed as Kd, often an IC50 or EC50 that approximates it; ≥ and ≤ were set here for values at or beyond the usual limits of such assays
[24] = molecular target: HLA-B*18:01; experiment: as above
[25] = molecular target: HLA-B*44:02; experiment: as above; details: source organism: Influenza A virus (A/duck/Guangxi/1586/2004(H5N1))
[26] = source organism: Vaccinia virus Copenhagen
[27] = source organism: Vaccinia virus WR
[28] = source organism: Hepacivirus hominis
[29] = source organism: Mammarenavirus lassaense
[30] = source organism: Mammarenavirus juninense
[31] = source organism: Lymphocytic choriomeningitis virus (strain Armstrong)
[32] = source organism: Influenza A virus (A/duck/Guangxi/1586/2004(H5N1))
[33] = source organism: SARS coronavirus Tor2

Sequence: LILSCIFAFI
- pKd [1, 26]: 5.82
- pKd [2, 26]: 7.76
- pKd [3, 26]: 6.02
- pKd [4, 26]: 7.70
- pKd [5, 26]: ≤ 4.16
- pKd [6, 26]: 7.37
- pKd [7, 26]: 6.18
- pKd [8, 26]: ≤ 4.44
- pKd [9, 26]: 5.73
- pKd [10, 26]: 4.76
- pKd [11, 26]: 6.60
- pKd [12, 26]: 5.24
- pKd [13, 26]: 5.74
- pKd [14, 26]: 8.28

Sequence: EPSGNNYHI
- pKd [1, 27]: 5.80
- pKd [5, 27]: 5.85
- pKd [8, 27]: ≤ 4.35
- pKd [10, 27]: 6.16
- pKd [13, 27]: 7.69

Sequence: RDWAHNSL
- pKd [15]: ≤ 4.05
- pKd [1, 28]: ≤ 4.06
- pKd [16]: ≤ 4.06
- pKd [2, 28]: ≤ 4.16
- pKd [3, 28]: ≤ 4.06
- pKd [4, 28]: ≤ 4.15
- pKd [17]: ≤ 4.16
- pKd [5, 28]: 5.25
- pKd [6, 28]: ≤ 4.25
- pKd [7, 28]: ≤ 4.06
- pKd [8, 28]: ≤ 4.06
- pKd [9, 28]: ≤ 4.11
- pKd [10, 28]: ≤ 4.06
- pKd [11, 28]: ≤ 4.17
- pKd [18]: ≤ 4.08
- pKd [19]: 5.74
- pKd [20]: ≤ 4.05
- pKd [12, 28]: ≤ 4.06
- pKd [13, 28]: ≤ 4.06
- pKd [21]: ≤ 4.05
- pKd [22]: ≤ 4.12
- pKd [14, 28]: ≤ 4.15

Sequence: VENSPRASL
- pKd [23, 29]: 6.95
- pKd [24, 29]: 6.26

Sequence: TPENFSSLI
- pKd [1, 30]: ≤ 4.11
- pKd [5, 30]: 5.08
- pKd [8, 30]: ≤ 4.41
- pKd [10, 30]: 5.71
- pKd [13, 30]: 5.88

Sequence: DPPIPYSRV
- pKd [1, 27]: 6.49
- pKd [5, 27]: ≤ 4.11
- pKd [8, 27]: ≤ 4.27
- pKd [10, 27]: 7.51
- pKd [13, 27]: ≤ 4.50

Sequence: DPLVIPFSF
- pKd ([24]; source organism: Salmonella enterica subsp. enterica serovar Paratyphi A str. ATCC 9150): 5.50

Sequence: MPSLTMACM
- pKd [1, 31]: 5.89
- pKd [5, 31]: 6.95
- pKd [8, 31]: 8.26
- pKd [10, 31]: 6.06
- pKd [13, 31]: 5.67

Sequence: REILTKTTV
- pKd [23, 32]: 8.31
- pKd [24, 32]: 6.45
- pKd [25]: ≤ 4.32

Sequence: FPQVGGLTSI
- pKd [1, 33]: 7.59
- pKd [5, 33]: 6.79
- pKd [8, 33]: 6.22
- pKd [10, 33]: 7.11
- pKd [13, 33]: 7.62
